Values quoted from earlier work as cited in PMC2725201.
Like-named read-outs stand apart in the source and are kept apart here. One block for each substance: values may come before it.

Key:
C3a C3a (Homo sapiens) = C3a C3a (Homo sapiens) (UniProt P01024)
C5a C5a (Homo sapiens) [1] = molecular target: C5a C5a (Homo sapiens) (UniProt P01031)
[2] = molecular target: C5a-desArg C5a-desArg (Homo sapiens) (UniProt P01031)
C5a C5a (Homo sapiens) [3] = molecular target: C5a C5a (Homo sapiens) (UniProt P01031); remark: listed apart in the source

Sequence of C5aR (P21730 whole entry): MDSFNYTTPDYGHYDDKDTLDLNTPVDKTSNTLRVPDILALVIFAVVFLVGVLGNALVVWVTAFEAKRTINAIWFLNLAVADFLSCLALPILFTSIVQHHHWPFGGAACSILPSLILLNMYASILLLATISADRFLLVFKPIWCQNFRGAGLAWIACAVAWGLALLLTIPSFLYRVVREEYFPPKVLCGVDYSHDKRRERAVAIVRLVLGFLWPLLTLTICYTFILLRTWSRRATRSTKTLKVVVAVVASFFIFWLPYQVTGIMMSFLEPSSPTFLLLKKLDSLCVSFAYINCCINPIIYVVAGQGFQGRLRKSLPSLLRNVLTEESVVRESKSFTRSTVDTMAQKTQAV
Sequence of C5a C5a (Homo sapiens) (P01031 675-754): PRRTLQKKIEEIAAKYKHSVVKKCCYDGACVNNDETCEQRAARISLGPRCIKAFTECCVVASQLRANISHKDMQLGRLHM
Sequence of C3a C3a (Homo sapiens) (P01024 669-751): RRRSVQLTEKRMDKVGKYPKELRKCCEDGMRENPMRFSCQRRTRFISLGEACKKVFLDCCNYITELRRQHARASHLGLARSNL
Sequence of C5L2 (Q9P296 whole entry): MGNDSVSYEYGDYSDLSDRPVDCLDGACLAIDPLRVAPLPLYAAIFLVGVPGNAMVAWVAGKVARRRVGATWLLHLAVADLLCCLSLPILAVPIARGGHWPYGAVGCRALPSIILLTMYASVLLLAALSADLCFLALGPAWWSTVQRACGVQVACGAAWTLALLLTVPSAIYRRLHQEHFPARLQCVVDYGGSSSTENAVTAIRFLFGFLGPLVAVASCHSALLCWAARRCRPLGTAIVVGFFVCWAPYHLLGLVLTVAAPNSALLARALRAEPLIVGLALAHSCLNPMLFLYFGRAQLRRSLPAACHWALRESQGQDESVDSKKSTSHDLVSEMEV
Sequence of C3aR (Q16581 whole entry): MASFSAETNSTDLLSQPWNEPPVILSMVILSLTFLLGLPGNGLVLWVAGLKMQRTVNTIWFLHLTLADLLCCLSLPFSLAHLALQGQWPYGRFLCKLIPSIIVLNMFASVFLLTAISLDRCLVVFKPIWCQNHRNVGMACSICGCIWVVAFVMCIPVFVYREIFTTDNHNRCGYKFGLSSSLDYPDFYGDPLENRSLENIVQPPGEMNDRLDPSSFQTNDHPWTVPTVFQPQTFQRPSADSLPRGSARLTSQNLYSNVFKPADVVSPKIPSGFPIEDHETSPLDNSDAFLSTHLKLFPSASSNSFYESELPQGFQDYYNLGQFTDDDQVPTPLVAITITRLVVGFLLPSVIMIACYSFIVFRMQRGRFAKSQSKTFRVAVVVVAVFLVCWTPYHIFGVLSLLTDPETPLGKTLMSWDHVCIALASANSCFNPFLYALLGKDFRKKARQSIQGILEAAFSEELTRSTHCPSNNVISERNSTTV
Sequence of C5a-desArg C5a-desArg (Homo sapiens) (P01031 678-750): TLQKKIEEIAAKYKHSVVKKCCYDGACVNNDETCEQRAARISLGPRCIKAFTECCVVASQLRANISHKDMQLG

Kd (C3a C3a (Homo sapiens)): 1 nM
Substance: C3aR (from UniProt Q16581)

Kd (C5a C5a (Homo sapiens) [1]): 1 nM
Kd [2]: 660 nM
Substance: C5aR (from UniProt P21730)

Kd (C5a C5a (Homo sapiens) [3]): 2.5 nM
Substance: C5L2 (from UniProt Q9P296)
